The test has as its target nucleocapsid variant NC-1 (circularly permuted Aquifex aeolicus lumazine synthase with the arginine-rich peptide λN+ appended) (Aquifex aeolicus). As to the kind of experiment: cryo-EM structure.

Values joined by “and” are separate entries in the source; they are usually repeats but may differ in a detail not shown here. Equal values may be shown once.

As to “nucleocapsid variant NC-1 (circularly permuted Aquifex aeolicus lumazine synthase with the arginine-rich peptide λN+ appended)”, the stoichiometry N is 180 and 120.

One may read the stoichiometry N as a count of units in the complex or per binding partner.

These data come from publication doi:10.1101/2020.12.23.423990.
